# Target: T1, recombinant αVβ5 human integrin extracellular domains (human, UniProt P06756 31-992; P18084 24-719)
# T1 construct: integrin alpha-V, human, extracellular domain; integrin beta-5, human, extracellular domain; also called integrin αVβ5 heterodimer; source: bought: R&D Systems
# Assay: single-molecule magnetic tweezers; PilY1 construct tethered between HaloTag-ligand glass and streptavidin-coated superparamagnetic bead, held at constant low force (5-6 pN, below 7 pN) where I1 and I2 fold and unfold; 200 nM integrin added in binding buffer (10 mM Hepes pH 7.2, 150 mM NaCl, 10 mM ascorbic acid, 2 mM CaCl2, 1 mM MgCl2, 1 mM MnCl2); binding read as shortening of the unfolded extension of I2
# Details: both partners purified
# T1 sequence (P06756 31-992, chain 1 of 2): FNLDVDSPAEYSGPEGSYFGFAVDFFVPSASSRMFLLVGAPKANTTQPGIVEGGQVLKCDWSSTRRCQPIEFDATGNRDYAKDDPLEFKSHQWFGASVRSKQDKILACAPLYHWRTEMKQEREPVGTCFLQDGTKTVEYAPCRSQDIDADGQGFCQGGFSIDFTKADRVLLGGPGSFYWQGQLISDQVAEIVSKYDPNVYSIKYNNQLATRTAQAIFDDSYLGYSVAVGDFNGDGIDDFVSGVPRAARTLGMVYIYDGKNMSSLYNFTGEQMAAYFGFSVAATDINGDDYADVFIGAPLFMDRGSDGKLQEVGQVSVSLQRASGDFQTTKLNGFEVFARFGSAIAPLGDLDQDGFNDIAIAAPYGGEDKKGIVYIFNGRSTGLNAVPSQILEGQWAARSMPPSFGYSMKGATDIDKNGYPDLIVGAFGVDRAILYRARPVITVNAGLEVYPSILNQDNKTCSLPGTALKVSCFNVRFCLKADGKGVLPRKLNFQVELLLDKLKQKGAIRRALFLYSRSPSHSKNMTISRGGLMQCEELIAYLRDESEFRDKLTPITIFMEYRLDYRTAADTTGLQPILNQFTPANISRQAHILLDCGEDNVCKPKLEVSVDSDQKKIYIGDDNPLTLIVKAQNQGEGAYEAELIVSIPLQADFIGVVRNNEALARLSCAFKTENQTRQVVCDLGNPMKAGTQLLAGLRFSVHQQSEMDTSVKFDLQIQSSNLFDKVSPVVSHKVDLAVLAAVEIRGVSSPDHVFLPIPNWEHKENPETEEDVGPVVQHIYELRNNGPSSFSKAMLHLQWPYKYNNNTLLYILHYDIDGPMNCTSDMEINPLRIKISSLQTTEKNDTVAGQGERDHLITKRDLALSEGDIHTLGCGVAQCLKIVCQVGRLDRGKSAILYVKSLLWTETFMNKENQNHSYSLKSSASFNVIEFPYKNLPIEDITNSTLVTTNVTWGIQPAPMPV
# T1 sequence (P18084 24-719, chain 2 of 2): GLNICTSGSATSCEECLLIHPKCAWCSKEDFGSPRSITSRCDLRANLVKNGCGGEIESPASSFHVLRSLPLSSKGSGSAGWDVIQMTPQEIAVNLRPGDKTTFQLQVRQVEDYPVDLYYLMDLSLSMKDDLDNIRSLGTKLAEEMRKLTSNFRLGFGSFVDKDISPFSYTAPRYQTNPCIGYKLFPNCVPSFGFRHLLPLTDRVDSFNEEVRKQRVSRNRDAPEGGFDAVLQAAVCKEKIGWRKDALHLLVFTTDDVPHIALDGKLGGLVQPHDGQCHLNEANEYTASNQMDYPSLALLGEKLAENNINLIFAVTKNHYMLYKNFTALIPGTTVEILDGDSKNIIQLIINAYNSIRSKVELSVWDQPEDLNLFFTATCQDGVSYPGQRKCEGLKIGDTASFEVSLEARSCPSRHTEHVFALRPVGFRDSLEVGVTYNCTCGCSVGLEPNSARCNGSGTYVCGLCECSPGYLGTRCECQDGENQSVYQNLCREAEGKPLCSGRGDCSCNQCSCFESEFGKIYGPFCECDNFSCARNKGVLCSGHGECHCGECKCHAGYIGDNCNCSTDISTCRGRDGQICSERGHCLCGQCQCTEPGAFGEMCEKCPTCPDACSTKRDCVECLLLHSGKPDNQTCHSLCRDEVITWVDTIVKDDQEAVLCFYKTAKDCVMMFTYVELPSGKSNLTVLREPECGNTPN
binder,measurement,value
"PilY1^501−1161 chimeric polyprotein (HaloTag-(I32)2-PilY1 residues 501-1161-(I32)2-HisTag-AviTag) (domain or fragment, biotin on the AviTag, gene optimized for expression in E. coli; The HisTag lies between the last I32 and the AviTag; also called PilY1 C-terminal section; source: E. coli BL21 Star, purified (HisPur Cobalt resin, Superdex 200 SEC), biotinylated in vitro; not shown: HaloTag, N-terminal, kept; 2x human titin I32 domain, N-terminal, kept; 2x human titin I32 domain, C-terminal, kept; AviTag (biotinylated), C-terminal, kept) ISSSLQEDDTGDKLTRFAYQTSFASDKNWAGDLTRYSLTTQDKATVQTKLWSAQSILDAMPNGGAGRKIMMAGSGTSGLKEFTWGSLSADQQRQLNRDPDRNDVADTKGQDRVAFLRGDRRKENSDNFRTRNSILGDIINSSPATVGKAQYLTYLAQPIEPSGNYSTFAEAQKTRAPRVYVGANDGMLHGFDTDGNETFAFIPSAVFEKLHKLTARGYQGGAHQFYVDGSPVVADAFFGGAWHTVLIGSLRAGGKGLFALDVTDPANIKLLWEIGVDQEPDLGYSFPKPTVARLHNGKWAVVTGNGYSSLNDKAALLIIDLETGAITRKLEVTGRTGVPNGLSSPRLADNNSDGVADYAYAGDLQGNLWRFDLIAGKVNQDDPFSRANDGPAVASSFRVSFGGQPLYSAVDSAGAAQAITAAPSLVRHPTRKGYIVIFGTGKYFENADARADTSRAQTLYGIWDQQTKGEAAGSTPRLTRGNLQQQTLDLQADSTFASTARTIRIASQNPVNWLNNDGSTKQSGWYLDFMVNGTLKGEMLIEDMIAIGQVVLLQTITPNDDPCADGASNWTYGLDPYTGGRTSFTVFDLARQGVVDSKSDYSYNKQNVAVSGTEQKGLGGLTLSTNEQGNPEVCSSGECLTVNPGPNTRGRQNWRPIEGKN",binding result,binds

# Source: publication PMC11891296, “Mechanical forces and ligand binding modulate Pseudomonas aeruginosa PilY1 mechanosensitive protein” (Life Science Alliance, 2025)
